US20100297135A1 (CRC FOR ASTHMA AND AIRWAYS, published 2010)

Tests used:
murine GM-CSF = molecular target: T1, murine GM-CSF (murine, UniProt P01587 18-141); assay: semi-quantitative ELISA (data not shown)
T1 construct: also called wild type murine GM-CSF
T1 sequence (looked up): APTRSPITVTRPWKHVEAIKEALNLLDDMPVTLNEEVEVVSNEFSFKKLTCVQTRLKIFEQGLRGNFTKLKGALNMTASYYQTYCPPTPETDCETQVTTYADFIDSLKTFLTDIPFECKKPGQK

wild type human GM-CSF [1] = molecular target: T2, wild type human GM-CSF (human, UniProt P04141 18-144); assay: SPR (Biacore), human GM-CSF coated on CM5 chip, antibody injected
T2 construct: Biacore and TF-1 assays used recombinant human GM-CSF (Peprotech); also called recombinant human GM-CSF; WT
T2 sequence (P04141 other isoform, or with tags, fused parts or gaps limits assumed): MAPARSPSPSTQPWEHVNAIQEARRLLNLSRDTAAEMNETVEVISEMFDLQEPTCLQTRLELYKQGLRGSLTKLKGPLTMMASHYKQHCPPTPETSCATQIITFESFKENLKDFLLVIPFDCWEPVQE
Experimental: (§1) Recombinant human GM-CSF was coated onto a CM5 chip to determine the binding kinetics of 4K21 mAb. An uncoated flow cell was used as a reference. The antibody, prepared in HBS-EP at concentrations of 66.7 nM to 4.17 nM with 2-fold serial dilution, was injected for 2 minutes with a stabilisation time of 10 minutes and dissociation time of 15 minutes. The BIACore kinetic analysis wizard was run to determine each antibody's association (ka [1/Ms]), dissociation (kd[1/s]) and affinity (KD [nM]) to GM-CSF. […] Moreover, binding of 4K21 mAb to human GM-CSF is highly specific.

T99A = molecular target: T3, T99A; assay: semi-quantitative ELISA; GM-CSF polypeptide coated in serial dilutions (x axis = log coating concentration, no unit), 4K21 fixed at 12.5 ng/ml, goat anti-mouse IgG-HRP, absorbance
T3 construct: also called human GM-CSF alanine mutant T99A; the BD entry of the legend box prints 'T97A'
T3 sequence (single chain, as listed by the source T99A T99A): as the sequence (P04141 other isoform, or with tags, fused parts or gaps limits assumed) above, with T99A counted along it
Experimental: (§2) The binding analysis of 4K21 to the mutant GM-CSF polypeptides M1 to M5b was performed using a semi-quantitative ELISA. Approximately equal amounts of GM-CSF were used to coat a Maxisorb (Nunc. Cat #464718) 384 well plate and serially diluted 2-fold to the bottom of the plate (16 times). Coating was performed overnight at room temperature. Plates were washed 3 times with wash buffer (1×PBS, 0.05% tween) and blocked for 1 hr at 37° C. with PBS, 1% BSA solution. Plates were then washed 3 times with wash buffer. […] The plates were washed 3 times with wash buffer then secondary antibody, HRP conjugated goat anti mouse IgG (Jackson Cat #115-036-062) for 4K21 and rabbit anti rat IgG (BD, cat#P0450) for the BD commercial antibody was added to the wells at 1/5000 dilution and incubated at 37° C. for 1 hr. Plates were washed 4 times following which BD OptEIA TMB substrate (Cat #555214), prepared according to the manufacturer's instructions, was added to the wells and incubated at room temperature for 10 minutes. The reaction was stopped with 1M sulphuric acid and the plate read on a Tecan plate reader at 450 nm with reference filter at 620 nm.
(§3) Binding analysis was carried out essentially as described above with the exception of the method of quantitation. The BD antibody was used to quantitate the relative expression of the alanine mutants as none of these mutants were in the M2 binding epitope of the BD antibody. […] The binding was then compared to 4K21 used at 12.5 ng/ml with the secondary antibody being goat anti-mouse IgG-HRP antibody (Cat #115-036-062) at 1/2500 dilution.

[2] = molecular target: human GM-CSF alanine mutant I101A (human, UniProt P04141 18-144); assay: as above
human GM-CSF alanine mutant I101A, sequence (P04141 other isoform, or with tags, fused parts or gaps I101A I101A limits assumed): as the sequence (P04141 other isoform, or with tags, fused parts or gaps limits assumed) above, with I101A counted along it
Experimental: as §2, §3

[3] = molecular target: human GM-CSF alanine mutant C89A (human, UniProt P04141 18-144); assay: as above
human GM-CSF alanine mutant C89A, sequence (P04141 other isoform, or with tags, fused parts or gaps C89A C89A limits assumed): as the sequence (P04141 other isoform, or with tags, fused parts or gaps limits assumed) above, with C89A counted along it
Experimental: as §2, §3

Q100A = molecular target: T4, Q100A; assay: as above
T4 construct: also called human GM-CSF alanine mutant Q100A
T4 sequence (single chain, as listed by the source Q100A Q100A): as the sequence (P04141 other isoform, or with tags, fused parts or gaps limits assumed) above, with Q100A counted along it
Experimental: as §2, §3

S96A = molecular target: T5, S96A; assay: as above
T5 construct: also called human GM-CSF alanine mutant S96A
T5 sequence (single chain, as listed by the source S96A S96A): as the sequence (P04141 other isoform, or with tags, fused parts or gaps limits assumed) above, with S96A counted along it
Experimental: as §2, §3

wild type human GM-CSF [4] = molecular target: T2, wild type human GM-CSF; assay: cell-based or functional assay
[5] = molecular target: T6, human GM-CSF mutant M2 (R24 to M37 replaced by murine sequence) (human); assay: semi-quantitative ELISA; GM-CSF polypeptide coated in 2-fold dilutions (x axis = coating concentration), 4K21 fixed at 12.5 ng/ml, goat anti-mouse IgG-HRP, absorbance 450 nm
T6 construct: The flanking ranges are derived from the stated region
T6 sequence (P04141 other isoform, or with tags, fused parts or gaps mutant): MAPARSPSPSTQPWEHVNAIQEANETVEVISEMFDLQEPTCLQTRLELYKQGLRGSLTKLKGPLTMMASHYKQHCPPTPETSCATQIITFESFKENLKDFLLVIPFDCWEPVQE
Experimental: as §2

wild type human GM-CSF [6] = molecular target: T2, wild type human GM-CSF; assay: SPR (Biacore), human GM-CSF coated on CM5 chip, antibody injected; GM-CSF coated onto CM5 chip, antibody injected
Experimental: as §1

wild type human GM-CSF [7] = molecular target: T2, wild type human GM-CSF; assay: SPR (Biacore), alternative method of antibody capture; alternative method of antibody capture

binding result (murine GM-CSF): no binding
Ka (wild type human GM-CSF [1]): > 5.9e+09 M⁻¹
Kd (wild type human GM-CSF [1]): < 0.17 nM
koff (wild type human GM-CSF [1]): < 1e-05 s⁻¹
kon (wild type human GM-CSF [1]): 59000 M⁻¹ s⁻¹
binding result (T99A): binds
binding result [2]: binds
binding result [3]: binds
binding result (Q100A): binds
binding result (S96A): binds
IC50, neutralisation of human GM-CSF dependent TF-1 cell growth (3H-thymidine) (wild type human GM-CSF [4]): ~0.308 nM
EC50 (read off the curve) [5]: ~20 µg/mL
Kd (wild type human GM-CSF [6]): ~0.2 nM
Kd (wild type human GM-CSF [7]): ~0.43 nM
B1: murine anti-human GM-CSF monoclonal antibody 4K21-O11-E14 (antibody, V domains shown)
VH: EVQLVESGGGLVKSGGSLKLSCAASGFAFSAYDMSWVRQTPEKRLELVAYISSGGSSFYYPDTVKGRFTISRDNAKNTLYLQMSSLKSEDTAMYYCTRHLGFDYWGQGTTLTVSS
VL: DVVMTQTPLSLPVSLGDQASISCRSSQSLVNSNGNTYLHWFLQKPGQSPKLLIYKVSNRFSGVPDRFSGSGSGTDFTLKISRVEAEDLGVYFCSQSTHVPPTFGGGTKLEIK
notes: Murine monoclonal antibody from a hybridoma (ECACC 07051601), detected with anti-mouse IgG; also called 4K21 mAb; mAb 4K21
